Assay results taken from PMC7306444.

How the values were obtained:
Assay in all cases: fluorescence anisotropy
GST-hFMRP KH2 = GST-hFMRP KH2 (Homo sapiens, UniProt Q06787 281-425)
GST-hFMRP KH1-KH2 = GST-hFMRP KH1-KH2 (Homo sapiens, UniProt Q06787 216-425)
GST-hFMRP KH1 = GST-hFMRP KH1 (Homo sapiens, UniProt Q06787 216-280)
GST-hFMRP KH0 = GST-hFMRP KH0 (Homo sapiens, UniProt Q06787 126-201)
GST-hFMRP KH0-KH1-KH2 = GST-hFMRP KH0-KH1-KH2 (Homo sapiens, UniProt Q06787 126-425)
NT-hFMRP ΔKH1 = NT-hFMRP ΔKH1 (Homo sapiens, UniProt Q06787 281-632)
NT-hFMRP = NT-hFMRP (Homo sapiens, UniProt Q06787 218-632)
GST-hFMRP RGG = GST-hFMRP RGG (Homo sapiens, UniProt Q06787 531-632)

B1: (UGGA)4 (structured_RNA)
RNA: UUGGAUGGAUGGAUGGAU
binding result (GST-hFMRP KH2): no binding
binding result (GST-hFMRP KH1-KH2): no binding
binding result (GST-hFMRP KH1): no binding
binding result (GST-hFMRP KH0): no binding
binding result (GST-hFMRP KH0-KH1-KH2): no binding
Kd (NT-hFMRP ΔKH1): 840 ± 39 nM
Kd (NT-hFMRP): 710 ± 50 nM

B2: UGGA (ssRNA)
RNA: CCCCCCCUGGACCCCCCU
binding result (NT-hFMRP): no binding

B3: UGGm6ACU (ssRNA)
RNA: UGGACUUGGACUUGGACU
modifications: m6A at position 10
Kd (NT-hFMRP): 1250 ± 610 nM

B4: ACUU (ssRNA)
RNA: CCCCCCCACUUCCCCCCU
binding result (NT-hFMRP): no binding

B5: UG4U (structured_RNA)
RNA: UGGGGU
Kd (NT-hFMRP ΔKH1): 80 ± 7 nM
Kd (GST-hFMRP RGG): 210 ± 18 nM
Kd (NT-hFMRP): 110 ± 16 nM

B6: PolyG17 (structured_RNA)
RNA: GGGGGGGGGGGGGGGGGU
Kd (NT-hFMRP ΔKH1): 17 ± 3 nM
Kd (GST-hFMRP RGG): 8.6 ± 1.2 nM
Kd (NT-hFMRP): 14 ± 2 nM

B7: (GACG)4 (structured_RNA)
RNA: UGACGGACGGACGGACGU
binding result (GST-hFMRP KH2): no binding
binding result (GST-hFMRP KH1-KH2): no binding
binding result (GST-hFMRP KH1): no binding
binding result (GST-hFMRP KH0): no binding
binding result (GST-hFMRP KH0-KH1-KH2): no binding
binding result (GST-hFMRP RGG): no binding
binding result (NT-hFMRP): no binding
